System: Escherichia coli TOP10
Test: shrunken log2 fold change of peptide-encoding DNA abundance (4.5 h post-induction vs induction); higher = less antimicrobial activity (less host growth inhibition)
Conditions: time post-induction: 4.5 h; library: site-saturation at positions 5, 18, 19, 20
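Also: peptides expressed intracellularly from a pBAD plasmid library in pooled LB shake-flask culture, induced with 0.3% L-arabinose, DNA abundance read by NGS, three biological replicates, DESeq2 with apeglm shrinkage.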

Sequence	shrunken log2 fold change
RRIRRRPPRLPRPRPRPGVEPRP	0.99
RRIRKRPPRLPRPRPRPCDFPRP	-0.231
RRIRNRPPRLPRPRPRPFYLPRP	-0.0716
RRIRHRPPRLPRPRPRPLKMPRP	-0.182
RRIRIRPPRLPRPRPRPPCHPRP	-0.463
RRIRQRPPRLPRPRPRPVNIPRP	0.0209
RRIRTRPPRLPRPRPRPLKAPRP	0.0363
RRIRGRPPRLPRPRPRPNINPRP	0.337
RRIRARPPRLPRPRPRPIHQPRP	-0.0255
RRIRGRPPRLPRPRPRPIPTPRP	0.00615
RRIRRRPPRLPRPRPRPFMMPRP	-0.173
RRIRMRPPRLPRPRPRPSWTPRP	-0.0874
RRIRVRPPRLPRPRPRPFWCPRP	-0.121
RRIRKRPPRLPRPRPRPKVDPRP	0.00437
RRIRTRPPRLPRPRPRPFSYPRP	-0.0874
RRIRSRPPRLPRPRPRPKIHPRP	-0.0501
RRIRERPPRLPRPRPRPIVHPRP	-0.355
RRIRQRPPRLPRPRPRPKRLPRP	0.281
RRIRKRPPRLPRPRPRPRPWPRP	0.947
RRIRWRPPRLPRPRPRPFNYPRP	-0.533
RRIRKRPPRLPRPRPRPCNKPRP	0.0197
RRIRNRPPRLPRPRPRPTVAPRP	0.351

Sequence	shrunken log2 fold change
RRIRGRPPRLPRPRPRPCYFPRP	-0.0409
RRIRFRPPRLPRPRPRPTKKPRP	-0.0226
RRIRRRPPRLPRPRPRPFDDPRP	-0.236
RRIRARPPRLPRPRPRPERSPRP	0.264
RRIRKRPPRLPRPRPRPPYQPRP	0.0608
RRIRIRPPRLPRPRPRPIVCPRP	0.000993
RRIRLRPPRLPRPRPRPKHTPRP	0.228
RRIRGRPPRLPRPRPRPAYWPRP	-0.0674
RRIRHRPPRLPRPRPRPDAKPRP	-0.0555
RRIRHRPPRLPRPRPRPGARPRP	0.335
RRIRYRPPRLPRPRPRPFALPRP	-0.133
RRIRWRPPRLPRPRPRPNEIPRP	0.0563
RRIRSRPPRLPRPRPRPPKWPRP	0.329
RRIRMRPPRLPRPRPRPMGHPRP	-0.032
RRIRNRPPRLPRPRPRPRFEPRP	0.108
RRIRIRPPRLPRPRPRPHEQPRP	-0.288
RRIRARPPRLPRPRPRPFHDPRP	-0.356
RRIRVRPPRLPRPRPRPCTKPRP	-0.275
RRIRMRPPRLPRPRPRPIGCPRP	0.176
RRIRYRPPRLPRPRPRPFMIPRP	-1.21
RRIRHRPPRLPRPRPRPNIHPRP	-0.364
RRIRRRPPRLPRPRPRPCRDPRP	0.0656

Sequence	shrunken log2 fold change
RRIRHRPPRLPRPRPRPHWIPRP	-0.415
RRIRGRPPRLPRPRPRPLRWPRP	1.33
RRIRERPPRLPRPRPRPSPWPRP	-0.445
RRIRNRPPRLPRPRPRPVYQPRP	-0.00185
RRIRTRPPRLPRPRPRPPITPRP	-0.235
RRIRIRPPRLPRPRPRPTYGPRP	-0.548
RRIRSRPPRLPRPRPRPGMGPRP	0.0599
RRIRPRPPRLPRPRPRPRWEPRP	0.444
RRIRARPPRLPRPRPRPLLNPRP	0.373
RRIRIRPPRLPRPRPRPKKMPRP	0.222
RRIRIRPPRLPRPRPRPMAPPRP	-0.0415
RRIRWRPPRLPRPRPRPKPAPRP	0.605
RRIRQRPPRLPRPRPRPVMTPRP	-0.172
RRIRIRPPRLPRPRPRPYYEPRP	-1.06
RRIRIRPPRLPRPRPRPRMFPRP	-0.125
RRIRQRPPRLPRPRPRPAEGPRP	0.045
RRIRPRPPRLPRPRPRPDPCPRP	-0.0908
RRIRARPPRLPRPRPRPQQAPRP	0.308
RRIRTRPPRLPRPRPRPTVMPRP	-0.152
RRIRERPPRLPRPRPRPLERPRP	-0.191
RRIRFRPPRLPRPRPRPKHDPRP	-0.168
RRIRPRPPRLPRPRPRPVWFPRP	0.0968

Sequence	shrunken log2 fold change
RRIRQRPPRLPRPRPRPLTAPRP	0.0683
RRIRVRPPRLPRPRPRPESNPRP	0.0327
RRIRLRPPRLPRPRPRPHTKPRP	-0.422
RRIRKRPPRLPRPRPRPRNQPRP	0.493
RRIRCRPPRLPRPRPRPQKFPRP	-0.638
RRIRDRPPRLPRPRPRPRPIPRP	0.429
RRIRHRPPRLPRPRPRPFWYPRP	-0.167
RRIRGRPPRLPRPRPRPVDTPRP	0.678
RRIRCRPPRLPRPRPRPVQAPRP	0.224
RRIRNRPPRLPRPRPRPWQTPRP	0.0295
RRIRNRPPRLPRPRPRPMTMPRP	0.0125
RRIRPRPPRLPRPRPRPYIGPRP	-0.184
RRIRERPPRLPRPRPRPSHPPRP	-0.481
RRIRFRPPRLPRPRPRPTFGPRP	0.0623
RRIRTRPPRLPRPRPRPTTSPRP	0.0942
RRIRTRPPRLPRPRPRPAAVPRP	-0.0116
RRIRSRPPRLPRPRPRPPGHPRP	0.167
RRIRIRPPRLPRPRPRPVDHPRP	-0.498
RRIRHRPPRLPRPRPRPNYIPRP	-1.35
RRIRDRPPRLPRPRPRPWHIPRP	-0.058
RRIRHRPPRLPRPRPRPESTPRP	0.0536
RRIRNRPPRLPRPRPRPGNIPRP	-0.161

Sequence	shrunken log2 fold change
RRIRDRPPRLPRPRPRPMCCPRP	0.0249
RRIRDRPPRLPRPRPRPNPYPRP	-0.558
RRIRMRPPRLPRPRPRPCWGPRP	-0.078
RRIRFRPPRLPRPRPRPNVQPRP	-0.237
RRIRQRPPRLPRPRPRPEQRPRP	0.0426
RRIRKRPPRLPRPRPRPTASPRP	0.783
RRIRFRPPRLPRPRPRPVIGPRP	-0.234
RRIRNRPPRLPRPRPRPRRIPRP	0.0821
RRIRDRPPRLPRPRPRPTSLPRP	-0.0226
RRIRNRPPRLPRPRPRPEIHPRP	0.116
RRIRQRPPRLPRPRPRPTTIPRP	-0.116
RRIRYRPPRLPRPRPRPVACPRP	-0.187
RRIRRRPPRLPRPRPRPQSQPRP	0.112
RRIRYRPPRLPRPRPRPYNWPRP	-0.593
RRIRPRPPRLPRPRPRPQDQPRP	-0.126
RRIRVRPPRLPRPRPRPWRQPRP	0.2
RRIRQRPPRLPRPRPRPLYHPRP	-0.283
RRIRCRPPRLPRPRPRPWFTPRP	-0.879
RRIRHRPPRLPRPRPRPEISPRP	0.0458
RRIRVRPPRLPRPRPRPNQRPRP	0.0593
RRIRGRPPRLPRPRPRPSHMPRP	-0.207

— the supplement of paper PMC9112550, “Optimization of the antimicrobial peptide Bac7 by deep mutational scanning” (BMC Biology, 2022)
